Each block holds one binder with its values, some of them ahead of it.
What was measured:
[1] = molecular target: T1, full-length JP2 Δ(563-568) with N-terminal FLAG and C-terminal HA tags
T1 chain: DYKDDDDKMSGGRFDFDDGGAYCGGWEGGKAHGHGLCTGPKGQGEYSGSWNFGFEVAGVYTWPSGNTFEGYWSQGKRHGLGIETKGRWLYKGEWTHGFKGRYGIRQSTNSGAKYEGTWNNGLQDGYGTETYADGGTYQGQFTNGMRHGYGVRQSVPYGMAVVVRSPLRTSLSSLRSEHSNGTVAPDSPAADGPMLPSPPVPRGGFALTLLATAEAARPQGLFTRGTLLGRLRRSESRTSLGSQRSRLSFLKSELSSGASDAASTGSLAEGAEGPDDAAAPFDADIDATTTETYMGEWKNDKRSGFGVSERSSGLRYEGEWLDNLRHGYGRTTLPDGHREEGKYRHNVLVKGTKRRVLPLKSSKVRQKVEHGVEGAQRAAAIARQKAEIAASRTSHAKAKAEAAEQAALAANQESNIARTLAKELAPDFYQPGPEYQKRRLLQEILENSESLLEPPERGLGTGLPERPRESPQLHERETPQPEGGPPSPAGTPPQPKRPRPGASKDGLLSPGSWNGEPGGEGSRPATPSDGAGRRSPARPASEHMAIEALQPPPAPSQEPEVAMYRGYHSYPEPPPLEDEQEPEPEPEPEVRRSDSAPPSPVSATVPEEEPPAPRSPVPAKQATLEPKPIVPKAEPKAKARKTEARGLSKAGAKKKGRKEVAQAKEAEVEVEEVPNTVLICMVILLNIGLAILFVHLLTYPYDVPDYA

[2] = molecular target: T2, junctophilin-2 (JP2), murine, full length, untagged
T2 chain: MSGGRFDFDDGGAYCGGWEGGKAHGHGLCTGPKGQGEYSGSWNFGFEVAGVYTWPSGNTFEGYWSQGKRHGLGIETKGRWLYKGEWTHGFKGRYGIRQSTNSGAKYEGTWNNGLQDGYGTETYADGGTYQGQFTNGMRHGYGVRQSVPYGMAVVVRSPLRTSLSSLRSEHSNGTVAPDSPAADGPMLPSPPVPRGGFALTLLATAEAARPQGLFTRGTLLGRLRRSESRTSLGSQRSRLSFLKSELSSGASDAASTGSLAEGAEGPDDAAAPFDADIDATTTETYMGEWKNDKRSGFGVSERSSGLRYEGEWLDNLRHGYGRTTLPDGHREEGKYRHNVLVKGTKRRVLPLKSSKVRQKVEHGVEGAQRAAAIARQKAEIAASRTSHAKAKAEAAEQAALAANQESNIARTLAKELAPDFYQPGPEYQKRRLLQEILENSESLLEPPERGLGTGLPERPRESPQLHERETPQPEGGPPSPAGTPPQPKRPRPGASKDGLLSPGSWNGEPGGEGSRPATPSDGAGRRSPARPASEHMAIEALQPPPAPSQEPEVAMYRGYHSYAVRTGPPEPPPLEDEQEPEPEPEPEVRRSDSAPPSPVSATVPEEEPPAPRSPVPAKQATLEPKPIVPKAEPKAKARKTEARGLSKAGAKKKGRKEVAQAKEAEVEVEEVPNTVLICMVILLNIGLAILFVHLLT

[3] = molecular target: T3, JP2(1-565) truncation with N-terminal FLAG tag (plasmid construct of FIG. 4)
T3 chain: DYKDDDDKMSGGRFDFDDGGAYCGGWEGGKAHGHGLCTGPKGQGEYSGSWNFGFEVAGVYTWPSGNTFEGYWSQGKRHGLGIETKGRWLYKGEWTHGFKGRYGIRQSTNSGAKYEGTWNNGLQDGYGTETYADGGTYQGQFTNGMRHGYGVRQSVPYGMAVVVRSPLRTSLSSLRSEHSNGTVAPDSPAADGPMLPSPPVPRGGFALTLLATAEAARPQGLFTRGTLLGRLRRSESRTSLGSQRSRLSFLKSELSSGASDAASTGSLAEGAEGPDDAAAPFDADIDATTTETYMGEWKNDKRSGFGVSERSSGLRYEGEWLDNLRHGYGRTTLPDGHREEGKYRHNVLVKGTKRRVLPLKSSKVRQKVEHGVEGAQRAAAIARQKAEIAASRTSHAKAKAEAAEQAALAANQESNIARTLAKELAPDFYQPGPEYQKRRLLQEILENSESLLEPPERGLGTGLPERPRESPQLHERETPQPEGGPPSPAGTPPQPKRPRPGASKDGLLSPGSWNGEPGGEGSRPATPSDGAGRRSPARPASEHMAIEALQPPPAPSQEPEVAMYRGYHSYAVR

[4] = molecular target: T4, full-length JP2 Δ(153-158) with N-terminal FLAG and C-terminal HA tags
T4 chain: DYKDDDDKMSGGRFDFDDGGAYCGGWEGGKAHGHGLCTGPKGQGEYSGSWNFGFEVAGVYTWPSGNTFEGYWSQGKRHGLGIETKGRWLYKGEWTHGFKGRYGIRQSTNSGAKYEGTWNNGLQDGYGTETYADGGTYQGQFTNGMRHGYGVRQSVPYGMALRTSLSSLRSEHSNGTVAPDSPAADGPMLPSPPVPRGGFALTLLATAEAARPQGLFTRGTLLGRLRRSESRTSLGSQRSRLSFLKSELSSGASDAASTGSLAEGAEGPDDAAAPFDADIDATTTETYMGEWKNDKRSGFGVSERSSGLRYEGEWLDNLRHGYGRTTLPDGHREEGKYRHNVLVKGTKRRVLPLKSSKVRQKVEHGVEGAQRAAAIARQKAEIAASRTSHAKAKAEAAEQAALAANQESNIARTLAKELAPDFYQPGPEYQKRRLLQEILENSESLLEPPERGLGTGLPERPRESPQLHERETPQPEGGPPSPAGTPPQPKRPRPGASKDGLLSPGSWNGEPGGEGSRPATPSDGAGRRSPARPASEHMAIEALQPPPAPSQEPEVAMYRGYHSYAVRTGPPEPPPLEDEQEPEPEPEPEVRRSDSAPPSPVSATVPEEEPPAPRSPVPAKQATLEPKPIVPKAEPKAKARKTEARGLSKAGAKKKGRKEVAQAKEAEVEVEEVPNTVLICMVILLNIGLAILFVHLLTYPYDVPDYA

[5] = molecular target: T5, full-length JP2 Δ(198-205) with N-terminal FLAG and C-terminal HA tags
T5 chain: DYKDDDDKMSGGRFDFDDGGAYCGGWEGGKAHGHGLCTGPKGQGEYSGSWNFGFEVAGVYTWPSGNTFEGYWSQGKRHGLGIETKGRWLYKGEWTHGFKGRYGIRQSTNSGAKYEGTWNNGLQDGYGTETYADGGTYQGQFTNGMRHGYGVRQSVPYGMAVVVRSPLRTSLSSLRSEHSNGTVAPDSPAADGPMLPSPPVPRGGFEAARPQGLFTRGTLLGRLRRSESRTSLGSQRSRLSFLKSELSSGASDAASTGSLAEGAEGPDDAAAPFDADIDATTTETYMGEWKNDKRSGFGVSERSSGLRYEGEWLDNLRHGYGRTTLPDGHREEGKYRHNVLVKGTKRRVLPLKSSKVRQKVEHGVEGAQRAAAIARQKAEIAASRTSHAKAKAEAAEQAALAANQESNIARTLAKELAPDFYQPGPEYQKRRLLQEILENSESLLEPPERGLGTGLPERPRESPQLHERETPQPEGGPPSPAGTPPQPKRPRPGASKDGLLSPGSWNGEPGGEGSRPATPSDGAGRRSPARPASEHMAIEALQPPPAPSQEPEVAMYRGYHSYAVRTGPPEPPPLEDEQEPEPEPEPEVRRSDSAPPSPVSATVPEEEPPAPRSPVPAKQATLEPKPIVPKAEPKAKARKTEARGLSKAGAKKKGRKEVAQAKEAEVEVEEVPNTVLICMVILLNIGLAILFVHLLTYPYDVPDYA

[6] = molecular target: T6, junctophilin-2 (JP2), human, in human heart lysates, Q9BR39
T6 chain: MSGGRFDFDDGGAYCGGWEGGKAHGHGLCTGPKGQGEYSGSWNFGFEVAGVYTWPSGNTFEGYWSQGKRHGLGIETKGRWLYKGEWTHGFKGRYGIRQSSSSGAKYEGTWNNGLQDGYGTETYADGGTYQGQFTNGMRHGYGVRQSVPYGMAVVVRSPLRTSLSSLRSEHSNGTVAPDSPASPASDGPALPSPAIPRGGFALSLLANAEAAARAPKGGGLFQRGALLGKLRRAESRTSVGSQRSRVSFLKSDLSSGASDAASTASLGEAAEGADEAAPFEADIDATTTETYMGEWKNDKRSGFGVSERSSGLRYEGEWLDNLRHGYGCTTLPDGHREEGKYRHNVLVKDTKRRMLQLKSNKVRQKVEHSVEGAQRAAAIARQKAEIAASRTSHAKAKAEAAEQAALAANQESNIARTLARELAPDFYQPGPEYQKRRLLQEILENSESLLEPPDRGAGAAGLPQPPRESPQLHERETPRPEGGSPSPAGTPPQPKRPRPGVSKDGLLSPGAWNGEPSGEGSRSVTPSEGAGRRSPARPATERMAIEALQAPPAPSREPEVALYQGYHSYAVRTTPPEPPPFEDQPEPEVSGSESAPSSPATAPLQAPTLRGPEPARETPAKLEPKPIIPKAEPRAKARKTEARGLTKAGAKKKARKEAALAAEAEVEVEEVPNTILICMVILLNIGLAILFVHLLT

[7] = molecular target: GST-JP2NT (junctophilin-2 residues 1-565) (Mus musculus, UniProt Q9ET78 SEQ:1-565); experiment: EMSA; settings: tags: GST
[8] = molecular target: T7, type 2 ryanodine receptor (mouse, UniProt E9Q401 1-4966, limits assumed); experiment: co-immunoprecipitation with anti-HA, Western blot
T7 construct: Endogenous prey of the co-immunoprecipitation; also called RyR2

[9] = molecular target: T8, Cav1.2 (voltage-gated L-type Ca2+ channel) (mouse, UniProt Q01815 1-2139); experiment: co-immunoprecipitation with anti-HA, Western blot
T8 construct: Endogenous prey of the co-immunoprecipitation
T8 sequence (Q01815 whole entry): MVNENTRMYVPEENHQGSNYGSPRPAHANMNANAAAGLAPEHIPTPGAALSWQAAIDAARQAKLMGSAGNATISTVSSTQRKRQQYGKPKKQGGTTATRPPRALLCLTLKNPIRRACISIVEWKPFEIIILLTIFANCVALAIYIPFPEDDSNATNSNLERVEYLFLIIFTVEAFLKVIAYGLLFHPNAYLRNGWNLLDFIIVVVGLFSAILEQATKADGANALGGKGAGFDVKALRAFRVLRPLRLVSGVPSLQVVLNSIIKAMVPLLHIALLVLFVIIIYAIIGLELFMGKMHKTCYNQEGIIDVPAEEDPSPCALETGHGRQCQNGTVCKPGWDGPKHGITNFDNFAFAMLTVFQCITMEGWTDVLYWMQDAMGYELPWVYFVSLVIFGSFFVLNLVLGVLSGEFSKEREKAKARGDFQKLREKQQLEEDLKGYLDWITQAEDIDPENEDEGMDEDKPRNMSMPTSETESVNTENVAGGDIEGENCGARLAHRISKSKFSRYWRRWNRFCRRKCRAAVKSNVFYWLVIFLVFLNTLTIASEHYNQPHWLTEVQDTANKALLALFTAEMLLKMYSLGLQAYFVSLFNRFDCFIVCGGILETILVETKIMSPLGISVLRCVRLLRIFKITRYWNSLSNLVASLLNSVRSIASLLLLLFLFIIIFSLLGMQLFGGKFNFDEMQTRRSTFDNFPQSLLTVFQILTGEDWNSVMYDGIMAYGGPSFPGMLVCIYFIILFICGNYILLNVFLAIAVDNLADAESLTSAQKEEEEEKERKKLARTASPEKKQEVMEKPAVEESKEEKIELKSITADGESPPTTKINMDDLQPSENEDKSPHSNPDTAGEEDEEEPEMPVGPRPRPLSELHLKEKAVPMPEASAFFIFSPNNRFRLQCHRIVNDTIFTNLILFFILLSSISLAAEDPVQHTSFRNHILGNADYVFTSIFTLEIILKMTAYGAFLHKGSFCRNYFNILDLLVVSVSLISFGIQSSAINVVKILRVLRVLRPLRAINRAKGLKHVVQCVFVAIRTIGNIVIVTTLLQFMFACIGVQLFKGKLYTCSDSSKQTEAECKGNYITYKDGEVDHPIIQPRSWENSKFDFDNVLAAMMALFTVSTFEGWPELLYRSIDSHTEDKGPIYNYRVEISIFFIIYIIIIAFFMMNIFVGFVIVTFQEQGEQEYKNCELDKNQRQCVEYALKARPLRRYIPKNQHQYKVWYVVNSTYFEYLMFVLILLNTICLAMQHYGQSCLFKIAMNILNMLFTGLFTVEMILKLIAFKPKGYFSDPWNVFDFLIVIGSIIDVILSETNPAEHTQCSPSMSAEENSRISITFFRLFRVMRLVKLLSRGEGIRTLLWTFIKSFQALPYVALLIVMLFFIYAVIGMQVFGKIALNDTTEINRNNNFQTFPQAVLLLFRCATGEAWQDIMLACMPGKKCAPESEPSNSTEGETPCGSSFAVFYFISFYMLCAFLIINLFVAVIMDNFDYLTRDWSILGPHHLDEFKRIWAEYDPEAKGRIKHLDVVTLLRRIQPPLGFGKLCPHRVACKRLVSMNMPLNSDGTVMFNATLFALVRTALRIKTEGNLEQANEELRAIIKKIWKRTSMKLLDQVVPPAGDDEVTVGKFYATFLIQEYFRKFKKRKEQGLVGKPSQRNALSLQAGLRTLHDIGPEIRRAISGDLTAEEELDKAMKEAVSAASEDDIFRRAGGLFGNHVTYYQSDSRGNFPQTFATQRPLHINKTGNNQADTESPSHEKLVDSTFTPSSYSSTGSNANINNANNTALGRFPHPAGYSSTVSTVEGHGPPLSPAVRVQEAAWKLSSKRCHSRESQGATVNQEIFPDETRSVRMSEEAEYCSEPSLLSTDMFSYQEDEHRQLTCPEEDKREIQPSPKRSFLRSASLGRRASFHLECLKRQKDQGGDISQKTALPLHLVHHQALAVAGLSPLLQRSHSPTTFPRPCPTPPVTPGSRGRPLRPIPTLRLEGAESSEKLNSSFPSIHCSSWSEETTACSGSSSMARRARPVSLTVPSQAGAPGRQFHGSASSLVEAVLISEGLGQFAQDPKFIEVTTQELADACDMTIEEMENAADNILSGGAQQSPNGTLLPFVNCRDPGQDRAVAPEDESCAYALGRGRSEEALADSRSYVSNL

B1: purified human calpain I (protein)
chain: SEEIITPVYCTGVSAQVQKQRARELGLGRHENAIKYLGQDYEQLRVRCLQSGTLFRDEAFPPVPQSLGYKDLGPNSSKTYGIKWKRPTELLSNPQFIVDGATRTDICQGALGDCWLLAAIASLTLNDTLLHRVVPHGQSFQNGYAGIFHFQLWQFGEWVDVVVDDLLPIKDGKLVFVHSAEGNEFWSALLEKAYAKVNGSYEALSGGSTSEGFEDFTGGVTEWYELRKAPSDLYQIILKALERGSLLGCSIDISSVLDMEAITFKKLVKGHAYSVTGAKQVNYRGQVVSLIRMRNPWGEVEWTGAWSDSSSEWNNVDPYERDQLRVKMEDGEFWMSFRDFMREFTRLEICNLTPDALKSRTIRKWNTTLYEGTWRRGSTAGGCRNYPATFWVNPQFKIRLDETDDPDDYGDRESGCSFVLALMQKHRRRERRFGRDMETIGFAVYEVPPELVGQPAVHLKRDFFLANASRARSEQFINLREVSTRFRLPPGEYVVVPSTFEPNKEGDFVLRFFSEKSAGTVELDDQIQANLPDEQVLSEEEIDENFKALFRQLAGEDMEISVKELRTILNRIISKHKDLRTKGFSLESCRSMVNLMDRDGNGKLGLVEFNILWNRIRNYLSIFRKFDLDKSGSMSAYEMRMAIESAGFKLNKKLYELIITRYSEPDLAVDFDNFVCCLVRLETMFRFFKTLDTDLDGVVTFDLFKWLQLTMFA
- in vitro calpain cleavage assay, Western blot [1]: led to complete loss of N-IV (FIG. 4D, d) and a severe reduction in C-I
- in vitro calpain cleavage of WT mouse heart lysates, Western blot of full-length JP2 [2]: significant reduction in full-length JP2 upon addition of calpain I
- in vitro calpain cleavage, Western blot with anti-FLAG [3]: this fragment can be further processed by calpain to generate N-I, N-II, and N-III fragments
- in vitro calpain cleavage assay, Western blot [4]: completely abolished the generation of N-I in the in vitro calpain cleavage assay
- in vitro calpain cleavage assay, Western blot [5]: resulted in complete loss of the JP2 cleavage product N-II but had no effect on the generation of N-I
- in vitro calpain cleavage of human heart lysates, Western blot of JP2 [6]: time-dependent and Ca^2+/calpain-dependent JP2 down-regulation

B2: TATA box variant TATAAT (dsDNA)
DNA 1: GGGATCTGAGTCGCAGTATAATAGAAGCTTTTCGGGCGTT
DNA 2: AACGCCCGAAAAGCTTCTATTATACTGCGACTCAGATCCC
modifications: [22]
- binding result [7]: binds

- binding result [8]: no binding
B3: JP2(566-end)-HA (other)
chain: TGPPEPPPLEDEQEPEPEPEPEVRRSDSAPPSPVSATVPEEEPPAPRSPVPAKQATLEPKPIVPKAEPKAKARKTEARGLSKAGAKKKGRKEVAQAKEAEVEVEEVPNTVLICMVILLNIGLAILFVHLLTYPYDVPDYA
notes: also called JP(566-end); Ad-JP2(566-end)
- binding result [9]: no binding
